Values quoted from earlier work, collected in US20100086958A1, “NOVEL ENZYME” (priority 2008, published 2010).
Changes are numbered by the printed parent chain. Names may count otherwise. Where two headings read alike, the source gives them in different places.

What was measured:
[1] = literature, cited from earlier work; for Km: read-out: Km NADP^+
[2] = literature, cited from earlier work; for Km: read-out: Km NAD^+
[3] = unit = μmol formate oxidized per min; literature; cited from earlier work
[4] = ADHs (DroADH, SceADH), AlaDHs, GAPDH

B1: WT_PstPTDH: wild type phosphate dehydrogenase from Pseudomonas stutzeri (protein, UniProt O69054 1-336, looked up)
Phosphonate dehydrogenase: MLPKLVITHRVHDEILQLLAPHCELMTNQTDSTLTREEILRRCRDAQAMMAFMPDRVDADFLQACPELRVVGCALKGFDNFDVDACTARGVWLTFVPDLLTVPTAELAIGLAVGLGRHLRAADAFVRSGEFQGWQPQFYGTGLDNATVGILGMGAIGLAMADRLQGWGATLQYHEAKALDTQTEQRLGLRQVACSELFASSDFILLALPLNADTQHLVNAELLALVRPGALLVNPCRGSVVDEAAVLAALERGQLGGYAADVFEMEDWARADRPRLIDPALLAHPNTLFTPHIGSAVRAVRLEIERCAAQNIIQVLAGARPINAANRLPKAEPAAC
kcat NADP^+ ([1]; PTDH): 1.41 ± 0.0083 s⁻¹ | Km ([1]; PTDH): 2510 ± 410 µM | kcat NAD^+ ([2]; PTDH): 2.93 ± 0.14 s⁻¹ | Km ([2]; PTDH): 53 ± 9 µM

B2: E175A PstPTDH: E175A mutant of phosphate dehydrogenase from Pseudomonas stutzeri (protein, UniProt O69054 1-336, looked up, variant E175A)
Phosphonate dehydrogenase: B1 Phosphonate dehydrogenase with E175A
kcat NADP^+ ([1]; PTDH): 2.18 ± 0.0067 s⁻¹ | Km ([1]; PTDH): 144 ± 14 µM | kcat NAD^+ ([2]; PTDH): 3.5 ± 0.005 s⁻¹ | Km ([2]; PTDH): 16 ± 0.8 µM

B3: A176R PstPTDH: A176R mutant of phosphate dehydrogenase from Pseudomonas stutzeri (protein, UniProt O69054 1-336, looked up, variant A176R)
Phosphonate dehydrogenase: B1 Phosphonate dehydrogenase with A176R
kcat NADP^+ ([1]; PTDH): 2.18 ± 0.0067 s⁻¹ | Km ([1]; PTDH): 77 ± 8.4 µM | kcat NAD^+ ([2]; PTDH): 4.28 ± 0.0083 s⁻¹ | Km ([2]; PTDH): 60 ± 7 µM

B4: E175A/A176R PstPTDH: E175A/A176R mutant of phosphate dehydrogenase from Pseudomonas stutzeri (protein, UniProt O69054 1-336, looked up, variant E175A A176R)
Phosphonate dehydrogenase: B1 Phosphonate dehydrogenase with E175A, A176R
kcat NADP^+ ([1]; PTDH): 1.9 ± 0.0083 s⁻¹ | Km ([1]; PTDH): 3.5 ± 0.5 µM | kcat NAD^+ ([2]; PTDH): 3.94 ± 0.0083 s⁻¹ | Km ([2]; PTDH): 20 ± 1.3 µM

B5: WT_BstGAPDH: wild type glyceraldehydes-3-phosphate dehydrogenase from Bacillus stearothermophilus (protein, UniProt P00362 2-335, looked up)
Glyceraldehyde-3-phosphate …: AVKVGINGFGRIGRNVFRAALKNPDIEVVAVNDLTDANTLAHLLKYDSVHGRLDAEVSVNGNNLVVNGKEIIVKAERDPENLAWGEIGVDIVVESTGRFTKREDAAKHLEAGAKKVIISAPAKNEDITIVMGVNQDKYDPKAHHVISNASCTTNCLAPFAKVLHEQFGIVRGMMTTVHSYTNDQRILDLPHKDLRRARAAAESIIPTTTGAAKAVALVLPELKGKLNGMAMRVPTPNVSVVDLVAELEKEVTVEEVNAALKAAAEGELKGILAYSEEPLVSRDYNGSTVSSTIDALSTMVIDGKMVKVVSWYDNETGYSHRVVDLAAYIASKGL
kcat NAD^+ [2, 4]: 280 s⁻¹ | Km [2, 4]: 150 µM

B6: WT_DroADH: wild type ADH from Drosophila (protein, UniProt P00334 2-256, looked up)
Alcohol dehydrogenase: SFTLTNKNVIFVAGLGGIGLDTSKELLKRDLKNLVILDRIENPAAIAELKAINPKVTVTFYPYDVTVPIAETTKLLKTIFAQLKTVDVLINGAGILDDHQIERTIAVNYTGLVNTTTAILDFWDKRKGGPGGIICNIGSVTGFNAIYQVPVYSGTKAAVVNFTSSLAKLAPITGVTAYTVNPGITRTTLVHKFNSWLDVEPQVAEKLLAHPTQPSLACAENFVKAIELNQNGAIWKLDLGTLEAIQWTKHWDSGI
kcat NADP^+ [1, 4]: 0.715 s⁻¹ | Km [1, 4]: 3090 ± 700 µM | kcat NAD^+ [2, 4]: 10.2 s⁻¹ | Km [2, 4]: 48 ± 1 µM

B7: A46R DroADH: A46R mutant of ADH from Drosophila (protein, UniProt P00334 2-256, looked up, variant A46R)
Alcohol dehydrogenase: B6 Alcohol dehydrogenase with A45R
kcat NADP^+ [1, 4]: 1.9 s⁻¹ | Km [1, 4]: 1270 ± 100 µM | kcat NAD^+ [2, 4]: 7.3 s⁻¹ | Km [2, 4]: 57 ± 3 µM

B8: C. bodinii D195S/Y196H: D195S/Y196H mutant of C. bodinii FDH (protein, UniProt O13437 1-364, looked up, variant D195S Y196H)
Formate dehydrogenase: MKIVLVLYDAGKHAADEEKLYGCTENKLGIANWLKDQGHELITTSDKEGETSELDKHIPDADIIITTPFHPAYITKERLDKAKNLKLVVVAGVGSDHIDLDYINQTGKKISVLEVTGSNVVSVAEHVVMTMLVLVRNFVPAHEQIINHDWEVAAIAKDAYDIEGKTIATIGAGRIGYRVLERLLPFNPKELLYYSHQALPKEAEEKVGARRVENIEELVAQADIVTVNAPLHAGTKGLINKELLSKFKKGAWLVNTARGAICVAEDVAAALESGQLRGYGGDVWFPQPAPKDHPWRDMRNKYGAGNAMTPHYSGTTLDAQTRYAEGTKNILESFFTGKFDYRPQDIILLNGEYVTKAYGKHDKK
activity with NADP^+ [3]: 0.19 U/mg | activity with NAD^+ [3]: 1.3 U/mg

B9: C. bodinii D195S/Y196H/K356T: D195S/Y196H/K356T mutant of C. bodinii FDH (protein, UniProt O13437 1-364, looked up, variant D195S Y196H K356T)
Formate dehydrogenase: B8 Formate dehydrogenase with K356T
activity with NADP^+ [3]: 0.36 U/mg | activity with NAD^+ [3]: 1.3 U/mg

B10: CboFDH: wild type FDH from Candida Boidinii, Seq ID No: 13 (protein, listed as Candida boidinii)
chain: MKIVLVLYDAGKHAADEEKLYGCTENKLGIANWLKDQGHELITTSDKEGGNSVLDQHIPDADIIITTPFHPAYITKERIDKAKKLKLVVVAGVGSDHIDLDYINQTGKKISVLEVTGSNVVSVAEHVVMTMLVLVRNFVPAHEQIINHDWEVAAIAKDAYDIEGKTIATIGAGRIGYRVLERLVPFNPKELLYYDYQALPKDAEEKVGARRVENIEELVAQADIVTVNAPLHAGTKGLINKELLSKFKKGAWLVNTARGAICVAEDVAAALESGQLRGYGGDVWFPQPAPKDHPWRDMRNKYGAGNAMTPHYSGTTLDAQTRYAQGTKNILESFFTGKFDYRPQDIILLNGEYVTKAYGKHDKK
activity with NADP^+ [3]: 0.0013 U/mg | activity with NAD^+ [3]: 2.2 U/mg

B11: C. bodinii D195S: D195S mutant of C. bodinii FDH (protein, UniProt O13437 1-364, looked up, variant D195S)
Formate dehydrogenase: B8 Formate dehydrogenase with H196Y
activity with NADP^+ [3]: 0.083 U/mg | activity with NAD^+ [3]: 1.5 U/mg

B12: WT_17β-HSDHs: wild type human estrogenic 17β-hydroxysteroid dehydrogenase (protein, UniProt P14061 2-328, looked up)
17-beta-hydroxysteroid …: ARTVVLITGCSSGIGLHLAVRLASDPSQSFKVYATLRDLKTQGRLWEAARALACPPGSLETLQLDVRDSKSVAAARERVTEGRVDVLVCNAGLGLLGPLEALGEDAVASVLDVNVVGTVRMLQAFLPDMKRRGSGRVLVTGSVGGLMGLPFNDVYCASKFALEGLCESLAVLLLPFGVHLSLIECGPVHTAFMEKVLGSPEEVLDRTDIHTFHRFYQYLAHSKQVFREAAQNPEEVAEVFLTALRAPKPTLRYFTTERFLPLLRMRLDDPSGSNYVTAMHREVFGDVPAKAEAGAEAGGGAGPGAEDEAGRGAVGDPELGDPPAAPQ
kcat NADP^+ ([1]; 17β-HSDHs): 4.2 ± 0.2 s⁻¹ | kcat NAD^+ ([2]; 17β-HSDHs): 7.5 ± 0.1 s⁻¹ | Km ([2]; 17β-HSDHs): 11.8 ± 0.8 µM

B13: L36D 17β-HSDHs: L36D mutant of human estrogenic 17β-hydroxysteroid dehydrogenase (protein, UniProt P14061 2-328, looked up, variant L36D)
17-beta-hydroxysteroid …: B12 17-beta-hydroxysteroid … with L36D
kcat NADP^+ ([1]; 17β-HSDHs): 16.7 ± 2.2 s⁻¹ | kcat NAD^+ ([2]; 17β-HSDHs): 13.9 ± 0.8 s⁻¹ | Km ([2]; 17β-HSDHs): 83 ± 5 µM

B14: WT_PstXDH: wild type xylitol dehydrogenase from Pichia stipitis (protein, UniProt P22144 1-363, looked up)
D-xylulose reductase: MTANPSLVLNKIDDISFETYDAPEISEPTDVLVQVKKTGICGSDIHFYAHGRIGNFVLTKPMVLGHESAGTVVQVGKGVTSLKVGDNVAIEPGIPSRFSDEYKSGHYNLCPHMAFAATPNSKEGEPNPPGTLCKYFKSPEDFLVKLPDHVSLELGALVEPLSVGVHASKLGSVAFGDYVAVFGAGPVGLLAAAVAKTFGAKGVIVVDIFDNKLKMAKDIGAATHTFNSKTGGSEELIKAFGGNVPNVVLECTGAEPCIKLGVDAIAPGGRFVQVGNAAGPVSFPITVFAMKELTLFGSFRYGFNDYKTAVGIFDTNYQNGRENAPIDFEQLITHRYKFKDAIEAYDLVRAGKGAVKCLIDGPE
kcat NADP^+ ([1]; ADHs (KlADH III), G6PDHs, XDHs): 1.83 ± 0.167 s⁻¹ | kcat NAD^+ ([2]; ADHs (KlADH III), G6PDHs, XDHs): 17.5 ± 0.5 s⁻¹ | Km ([2]; ADHs (KlADH III), G6PDHs, XDHs): 381 ± 30 µM

B15: WT_SceADH: wild type ADH from Saccharomyces cerevisiae (protein, UniProt P00330 2-348, looked up)
Alcohol dehydrogenase 1: SIPETQKGVIFYESHGKLEYKDIPVPKPKANELLINVKYSGVCHTDLHAWHGDWPLPVKLPLVGGHEGAGVVVGMGENVKGWKIGDYAGIKWLNGSCMACEYCELGNESNCPHADLSGYTHDGSFQQYATADAVQAAHIPQGTDLAQVAPILCAGITVYKALKSANLMAGHWVAISGAAGGLGSLAVQYAKAMGYRVLGIDGGEGKEELFRSIGGEVFIDFTKEKDIVGAVLKATDGGAHGVINVSVSEAAIEASTRYVRANGTTVLVGMPAGAKCCSDVFNQVVKSISIVGSYVGNRADTREALDFFARGLVKSPIKVVGLSTLPEIYEKMEKGQIVGRYVVDTSK
kcat NAD^+ [2, 4]: 360 s⁻¹ | Km [2, 4]: 160 µM
